The record followed here is publication doi:10.1101/152850 (bioRxiv, 2017).

In data set [1] the target is T1, IFIT1 wild-type (human, UniProt P09914 1-478).
T1 sequence: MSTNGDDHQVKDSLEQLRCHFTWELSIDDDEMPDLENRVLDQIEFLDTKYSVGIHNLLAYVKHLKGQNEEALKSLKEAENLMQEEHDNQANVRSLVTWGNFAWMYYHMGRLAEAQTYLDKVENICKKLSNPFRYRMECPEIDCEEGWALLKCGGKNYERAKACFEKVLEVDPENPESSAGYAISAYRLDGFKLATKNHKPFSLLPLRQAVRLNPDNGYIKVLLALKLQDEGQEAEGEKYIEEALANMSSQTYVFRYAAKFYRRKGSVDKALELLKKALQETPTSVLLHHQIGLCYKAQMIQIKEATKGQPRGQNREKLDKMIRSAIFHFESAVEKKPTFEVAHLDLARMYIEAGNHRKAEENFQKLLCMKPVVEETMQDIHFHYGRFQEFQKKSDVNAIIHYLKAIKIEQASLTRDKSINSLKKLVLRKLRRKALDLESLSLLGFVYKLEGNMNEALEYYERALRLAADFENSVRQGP
As to the kind of experiment: X-ray crystallography.

Data set [2] addresses T1, IFIT1 wild-type. As to the kind of experiment: X-ray crystallography. This is another data set of the same source.
The data set “SEC” deals with the molecule itself. In words: SEC.
In data set [3] the target is T1, IFIT1 wild-type. In words: limited proteolysis.
The data set “SEC-MALS” concerns the molecule itself. As to the kind of experiment: SEC-MALS.

Regarding AAAA (ssRNA, 5' triphosphate) [PPP-oligoA (PPP-AAAA)], the binding result with IFIT1 wild-type [1] is listed as “binds”.
In the case of AAAA (ssRNA, 5' m7Gppp cap (cap G not in strand)) [m7Gppp-oligoA (m7Gppp-AAAA)], the binding result with IFIT1 wild-type [2] is “binds”.

B1: IFIT2 (natural protein, UniProt P09913 1-472, looked up)
chain: MSENNKNSLESSLRQLKCHFTWNLMEGENSLDDFEDKVFYRTEFQNREFKATMCNLLAYLKHLKGQNEAALECLRKAEELIQQEHADQAEIRSLVTWGNYAWVYYHMGRLSDVQIYVDKVKHVCEKFSSPYRIESPELDCEEGWTRLKCGGNQNERAKVCFEKALEKKPKNPEFTSGLAIASYRLDNWPPSQNAIDPLRQAIRLNPDNQYLKVLLALKLHKMREEGEEEGEGEKLVEEALEKAPGVTDVLRSAAKFYRRKDEPDKAIELLKKALEYIPNNAYLHCQIGCCYRAKVFQVMNLRENGMYGKRKLLELIGHAVAHLKKADEANDNLFRVCSILASLHALADQYEDAEYYFQKEFSKELTPVAKQLLHLRYGNFQLYQMKCEDKAIHHFIEGVKINQKSREKEKMKDKLQKIAKMRLSKNGADSEALHVLAFLQELNEKMQQADEDSERGLESGSLIPSASSWNGE
Consider B1, for which the “stoichiometry N” value in the data set “SEC” came out at 2.
Consider AAAA (ssRNA, 5' Gppp cap (cap G not in strand)) [Gppp-oligoA (Gppp-AAAA)], for which the binding result with IFIT1 wild-type [3] is recorded as “binds”.

B2: IFIT5-IFIT1 chimera (IFIT5^i1TPR9): human IFIT5 α1-α21 (residues 1-435) and human IFIT1 α22-α23 (TPR9, residues 437-478) (other, UniProt Q13325 1-435, looked up)
chain: MSEIRKDTLKAILLELECHFTWNLLKEDIDLFEVEDTIGQQLEFLTTKSRLALYNLLAYVKHLKGQNKDALECLEQAEEIIQQEHSDKEEVRSLVTWGNYAWVYYHMDQLEEAQKYTGKIGNVCKKLSSPSNYKLECPETDCEKGWALLKFGGKYYQKAKAAFEKALEVEPDNPEFNIGYAITVYRLDDSDREGSVKSFSLGPLRKAVTLNPDNSYIKVFLALKLQDVHAEAEGEKYIEEILDQISSQPYVLRYAAKFYRRKNSWNKALELLKKALEVTPTSSFLHHQMGLCYRAQMIQIKKATHNRPKGKDKLKVDELISSAIFHFKAAMERDSMFAFAYTDLANMYAEGGQYSNAEDIFRKALRLENITDDHKHQIHYHYGRFQEFHRKSENTAIHHYLEALKVKDRSPLRTKLTSALKKLSTKRLCHNALDVLESLSLLGFVYKLEGNMNEALEYYERALRLAADFENSVRQGP
As for B2, the “stoichiometry N” value in the data set “SEC” came out at 2.

B3: human IFIT1, wild-type, full-length (residues 1-478) (natural protein, UniProt P09914 1-478, looked up)
chain: MSTNGDDHQVKDSLEQLRCHFTWELSIDDDEMPDLENRVLDQIEFLDTKYSVGIHNLLAYVKHLKGQNEEALKSLKEAENLMQEEHDNQANVRSLVTWGNFAWMYYHMGRLAEAQTYLDKVENICKKLSNPFRYRMECPEIDCEEGWALLKCGGKNYERAKACFEKVLEVDPENPESSAGYAISAYRLDGFKLATKNHKPFSLLPLRQAVRLNPDNGYIKVLLALKLQDEGQEAEGEKYIEEALANMSSQTYVFRYAAKFYRRKGSVDKALELLKKALQETPTSVLLHHQIGLCYKAQMIQIKEATKGQPRGQNREKLDKMIRSAIFHFESAVEKKPTFEVAHLDLARMYIEAGNHRKAEENFQKLLCMKPVVEETMQDIHFHYGRFQEFQKKSDVNAIIHYLKAIKIEQASLTRDKSINSLKKLVLRKLRRKALDLESLSLLGFVYKLEGNMNEALEYYERALRLAADFENSVRQGP
With B3, in “SEC-MALS”, the “stoichiometry N” value was 2.

B4: human IFIT1 K448E (natural protein, UniProt P09914 1-478, looked up)
chain: MSTNGDDHQVKDSLEQLRCHFTWELSIDDDEMPDLENRVLDQIEFLDTKYSVGIHNLLAYVKHLKGQNEEALKSLKEAENLMQEEHDNQANVRSLVTWGNFAWMYYHMGRLAEAQTYLDKVENICKKLSNPFRYRMECPEIDCEEGWALLKCGGKNYERAKACFEKVLEVDPENPESSAGYAISAYRLDGFKLATKNHKPFSLLPLRQAVRLNPDNGYIKVLLALKLQDEGQEAEGEKYIEEALANMSSQTYVFRYAAKFYRRKGSVDKALELLKKALQETPTSVLLHHQIGLCYKAQMIQIKEATKGQPRGQNREKLDKMIRSAIFHFESAVEKKPTFEVAHLDLARMYIEAGNHRKAEENFQKLLCMKPVVEETMQDIHFHYGRFQEFQKKSDVNAIIHYLKAIKIEQASLTRDKSINSLKKLVLRKLRRKALDLESLSLLGFVYELEGNMNEALEYYERALRLAADFENSVRQGP
Turning to B4, in “SEC”, the binding result is listed as “binds”.

What is called stoichiometry N is a count of units in the complex or per binding partner.
